The solubility is the concentration that dissolves in the medium under given conditions.

Here are results for five molecules from patent publication US10329331B2, “Polypeptides” (priority 2010, dated 2019).

The nature of series [1]: Small animal PET whole body distribution of 68Ga-labeled polypeptide. In kind it is in vivo. The conditions noted are these: rat, after intravenous injection, PET over […]. The method, then:
The labeling mixture was incubated at 90° C. for 15 min before cooling, and the labeled protein was isolated by size exclusion purification on a NAP-5 column eluted with physiologically buffered saline.
A rat (277 g) was anesthetized with isoflurane (initially 5%, then 2% blended with 7:3 air/O2), controlled by an E-Z vaporizer using Microflex non-rebreather masks from Euthanex Corporation, and was kept on a heating pad (37° C.) while lying within a microPET Focus120 system (Siemens, CTI Concorde Microsystems). ^68Ga-PEP08296, 33 MBq, was dispensed in a syringe, diluted with saline to 0.5 ml and injected via the tail vein. Data were acquired from the whole body by moving the bed in a constant bed motion protocol for 1.5 h. Data were processed with MicroPET Manager and corrected for randoms, dead time and decay. Images were reconstructed by standard 2D filtered back projection using a ramp filter and evaluated using Inveon Research Workplace (Siemens Medical Solutions) software.

The test system of series [2] is IgG molecules present in normal human sera. Description: Serum response analysis: ELISA of human serum IgG binding to albumin binding polypeptides. The conditions noted are these: 126 positive sera diluted 50 times; polypeptide 2 μg/ml on albumin coated plates. The procedure:
Each serum sample was tested as a singlet.

For series [3], the system named is CD3+ CD4+ T cells in peripheral blood mononuclear cells (PBMC).
The nature of a further series: physchem. In kind it is physicochemical. The method, then:
Amicon Ultra centrifugal filter units, cut off of 3 kDa, (Millipore, Cat. No. UFC800324) were prerinsed with 2 ml NaPi buffer by centrifugation at 4000 g for 20 min in a swinging bucket rotor centrifuge (Multifuge, Heraeus). […] A 25 μl sample was removed (UF sample 1) for further analysis and the rest of the sample was transferred to a second centrifugal filter unit. The centrifugation and sample removal were repeated three times with spinning times of 8, 9 and 20 min respectively (UF sample 2, 3 and 4 respectively). Absorbance readings were performed using a NANODROP ND-1000 Spectrophotometer and by diluting UF samples 1-4 in NaPi buffer 2, 4, 6 and 12 times respectively. The concentrations were calculated using the extinction coefficient 1 Abs 280=1.955 mg/ml. Gel filtration was performed on a 1100 HPLC system (Agilent Technologies) using a Superdex75 10/300 GL column (GE Healthcare) which had been equilibrated in NaPi buffer. 10 μl of each UF sample were applied to the column; NaPi buffer was used as running buffer and the flow rate was 0.5 ml/min. A chromatogram of the molecular weight standard ovalbumin (GE Healthcare), injected at a concentration of 5 mg/ml was collected as well. Concentrations were determined by integrating the area under the curve.

For the molecule `CC[C@H](C)[C@H](NC(=O)[C@H](C)NC(=O)[C@H](CC(=O)O)NC(=O)[C@H](CCCCN)NC(=O)[C@H](CC(C)C)NC(=O)[C@H](C)NC(=O)[C@H](CCC(=O)O)NC(=O)[C@@H](NC(=O)CNC(=O)[C@H](CCC(=O)O)NC(=O)[C@@H](NC(=O)[C@@H](NC(=O)[C@H](CCCCN)NC(=O)[C@H](C)NC(=O)[C@H](CCCCN)NC(=O)[C@H](CC(=O)O)NC(=O)[C@@H](NC(=O)[C@H](CC(C)C)NC(=O)[C@H](CCCNC(=N)N)NC(=O)[C@H](CCCCN)NC(=O)[C@H](Cc1ccc(O)cc1)NC(=O)[C@H](Cc1ccccc1)NC(=O)[C@H](CC(=O)O)NC(=O)[C@H](CO)NC(=O)[C@@H](NC(=O)CNC(=O)[C@H](Cc1ccc(O)cc1)NC(=O)[C@H](CSC1CC(=O)N(CCNC(=O)CN2CCN(CC(=O)O)CCN(CC(=O)O)CCN(CC(=O)O)CC2)C1=O)NC(=O)[C@H](CC(=O)O)NC(=O)[C@H](CC(C)C)NC(=O)[C@H](CCC(=O)O)NC(=O)[C@H](C)NC(=O)[C@H](CC(N)=O)NC(=O)[C@H](C)NC(=O)[C@H](C)NC(=O)[C@H](CCC(=O)O)NC(=O)[C@H](CCCCN)NC(=O)[C@H](C)NC(=O)[C@H](CCC(=O)O)NC(=O)[C@H](C)NC(=O)[C@H](CC(C)C)NC(=O)[C@H](CO)NC(=O)CN)C(C)C)[C@@H](C)CC)[C@@H](C)O)C(C)C)C(C)C)C(=O)N[C@@H](CC(C)C)C(=O)N[C@@H](C)C(=O)N[C@@H](C)C(=O)N[C@@H](CC(C)C)C(=O)N1CCC[C@H]1C(=O)NCC(=O)O` (single isomer, unassigned) [^68Ga-PEP08296, metal not drawn], in series [1], the plasma clearance entry is “very slow”.
With `CC[C@H](C)[C@H](NC(=O)[C@H](Cc1c[nH]cn1)NC(=O)[C@H](CC(C)C)NC(=O)[C@H](CCCCN)NC(=O)[C@H](CC(C)C)NC(=O)[C@H](C)NC(=O)[C@H](CCC(=O)O)NC(=O)[C@@H](NC(=O)CNC(=O)[C@H](CCC(=O)O)NC(=O)[C@@H](NC(=O)[C@@H](NC(=O)[C@H](CCCCN)NC(=O)[C@H](C)NC(=O)[C@H](CCCCN)NC(=O)[C@H](CC(N)=O)NC(=O)[C@@H](NC(=O)[C@H](CC(C)C)NC(=O)[C@H](CCCNC(=N)N)NC(=O)[C@H](CCCCN)NC(=O)[C@H](Cc1ccc(O)cc1)NC(=O)[C@H](Cc1ccccc1)NC(=O)[C@H](CC(=O)O)NC(=O)[C@H](CO)NC(=O)[C@@H](NC(=O)CNC(=O)[C@H](Cc1ccc(O)cc1)NC(=O)[C@H](CCCCN)NC(=O)[C@H](CC(=O)O)NC(=O)[C@H](CC(C)C)NC(=O)[C@H](CCC(=O)O)NC(=O)[C@H](CCCNC(=N)N)NC(=O)[C@H](CC(N)=O)NC(=O)[C@H](C)NC(=O)[C@H](CC(C)C)NC(=O)[C@@H](NC(=O)[C@H](CCCCN)NC(=O)[C@H](C)NC(=O)[C@H](CCC(=O)O)NC(=O)[C@H](C)NC(=O)[C@H](CC(C)C)NC(=O)[C@H](CO)NC(=O)[C@H](CO)NC(=O)CN)C(C)C)C(C)C)[C@@H](C)CC)[C@@H](C)O)C(C)C)C(C)C)C(=O)N[C@@H](CC(C)C)C(=O)N[C@@H](C)C(=O)N[C@@H](C)C(=O)N[C@@H](CC(C)C)C(=O)N1CCC[C@H]1C(=O)O` [PEP06923], the “reactivity with IgG in human sera (average OD-value, percentage of sera with IgG binding)” value in series [2] was “highest average OD-value and the highest percentage of serum with IgG binding”.
As for `CC[C@H](C)[C@H](NC(=O)[C@H](C)NC(=O)[C@H](CC(=O)O)NC(=O)[C@H](CCCCN)NC(=O)[C@H](CC(C)C)NC(=O)[C@H](C)NC(=O)[C@H](CCC(=O)O)NC(=O)[C@@H](NC(=O)CNC(=O)[C@H](CCC(=O)O)NC(=O)[C@@H](NC(=O)[C@@H](NC(=O)[C@H](CCCCN)NC(=O)[C@H](C)NC(=O)[C@H](CCCCN)NC(=O)[C@H](CC(=O)O)NC(=O)[C@@H](NC(=O)[C@H](CC(C)C)NC(=O)[C@H](CCCNC(=N)N)NC(=O)[C@H](CCCCN)NC(=O)[C@H](Cc1ccc(O)cc1)NC(=O)[C@H](Cc1ccccc1)NC(=O)[C@H](CC(=O)O)NC(=O)[C@H](CO)NC(=O)[C@@H](NC(=O)CNC(=O)[C@H](Cc1ccc(O)cc1)NC(=O)[C@H](CO)NC(=O)[C@H](CC(=O)O)NC(=O)[C@H](CC(C)C)NC(=O)[C@H](CCC(=O)O)NC(=O)[C@H](C)NC(=O)[C@H](CC(N)=O)NC(=O)[C@H](C)NC(=O)[C@H](C)NC(=O)[C@H](CCC(=O)O)NC(=O)[C@H](CCCCN)NC(=O)[C@H](C)NC(=O)[C@H](CCC(=O)O)NC(=O)[C@H](C)NC(=O)[C@H](CC(C)C)NC(=O)CN)C(C)C)[C@@H](C)CC)[C@@H](C)O)C(C)C)C(C)C)C(=O)N[C@@H](CC(C)C)C(=O)N[C@@H](C)C(=O)N[C@@H](C)C(=O)N[C@@H](CC(C)C)C(=O)N1CCC[C@H]1C(=O)O` [PEP07914], in series [3], the immunogenicity classification result was “non-immunogenic”.
Same read-out and setting: the result for `CC[C@H](C)[C@H](NC(=O)[C@H](C)NC(=O)[C@H](CC(=O)O)NC(=O)[C@H](CCCCN)NC(=O)[C@H](CC(C)C)NC(=O)[C@H](C)NC(=O)[C@H](CCC(=O)O)NC(=O)[C@@H](NC(=O)CNC(=O)[C@H](CCC(=O)O)NC(=O)[C@@H](NC(=O)[C@@H](NC(=O)[C@H](CCCCN)NC(=O)[C@H](C)NC(=O)[C@H](CCCCN)NC(=O)[C@H](CC(=O)O)NC(=O)[C@@H](NC(=O)[C@H](CC(C)C)NC(=O)[C@H](CCCNC(=N)N)NC(=O)[C@H](CCCCN)NC(=O)[C@H](Cc1ccc(O)cc1)NC(=O)[C@H](Cc1ccccc1)NC(=O)[C@H](CC(=O)O)NC(=O)[C@H](CO)NC(=O)[C@@H](NC(=O)CNC(=O)[C@H](Cc1ccc(O)cc1)NC(=O)[C@H](CSC1CC(=O)N(CCNC(=O)CN2CCN(CC(=O)O)CCN(CC(=O)O)CCN(CC(=O)O)CC2)C1=O)NC(=O)[C@H](CC(=O)O)NC(=O)[C@H](CC(C)C)NC(=O)[C@H](CCC(=O)O)NC(=O)[C@H](C)NC(=O)[C@H](CC(N)=O)NC(=O)[C@H](C)NC(=O)[C@H](C)NC(=O)[C@H](CCC(=O)O)NC(=O)[C@H](CCCCN)NC(=O)[C@H](C)NC(=O)[C@H](CO)NC(=O)[C@H](C)NC(=O)[C@H](CC(C)C)NC(=O)CN)C(C)C)[C@@H](C)CC)[C@@H](C)O)C(C)C)C(C)C)C(=O)N[C@@H](CC(C)C)C(=O)N[C@@H](C)C(=O)N[C@@H](C)C(=O)N[C@@H](CC(C)C)C(=O)N1CCC[C@H]1C(=O)O` (stereo partly drawn) [PEP07968] reads “non-immunogenic”.
For the molecule `CC[C@H](C)[C@H](NC(=O)[C@H](C)NC(=O)[C@H](CC(=O)O)NC(=O)[C@H](CCCCN)NC(=O)[C@H](CC(C)C)NC(=O)[C@H](C)NC(=O)[C@H](CCC(=O)O)NC(=O)[C@@H](NC(=O)CNC(=O)[C@H](CCC(=O)O)NC(=O)[C@@H](NC(=O)[C@@H](NC(=O)[C@H](CCCCN)NC(=O)[C@H](C)NC(=O)[C@H](CCCCN)NC(=O)[C@H](CC(=O)O)NC(=O)[C@@H](NC(=O)[C@H](CC(C)C)NC(=O)[C@H](CCCNC(=N)N)NC(=O)[C@H](CCCCN)NC(=O)[C@H](Cc1ccc(O)cc1)NC(=O)[C@H](Cc1ccccc1)NC(=O)[C@H](CC(=O)O)NC(=O)[C@H](CO)NC(=O)[C@@H](NC(=O)CNC(=O)[C@H](Cc1ccc(O)cc1)NC(=O)[C@H](CO)NC(=O)[C@H](CC(=O)O)NC(=O)[C@H](CC(C)C)NC(=O)[C@H](CCC(=O)O)NC(=O)[C@H](C)NC(=O)[C@H](CC(N)=O)NC(=O)[C@H](C)NC(=O)[C@H](C)NC(=O)[C@H](CCC(=O)O)NC(=O)[C@H](CCCCN)NC(=O)[C@H](C)NC(=O)[C@H](CCC(=O)O)NC(=O)[C@H](C)NC(=O)[C@H](CC(C)C)NC(=O)[C@H](CO)NC(=O)CN)C(C)C)[C@@H](C)CC)[C@@H](C)O)C(C)C)C(C)C)C(=O)N[C@@H](CC(C)C)C(=O)N[C@@H](C)C(=O)N[C@@H](C)C(=O)N[C@@H](CC(C)C)C(=O)N1CCC[C@H]1C(=O)O` [PEP07986], the solubility result was “more than 42 mg/ml” in “physchem” (pH 7.2) and not below 42 mg/mL in the series “physchem” (pH 7.2, aqueous buffer).
